Values of other authors, collected in US9422609B2, “Methods, compositions and devices for maintaining chemical balance of chlorinated water” (priority 2006, dated 2016).

Details: hydrolysis of cyanuric acid

B1: cyanuric acid amidohydrolase from strain ADP of Pseudomonas sp.: cyanuric acid amidohydrolase (EC 3.5.2.15) from strain ADP of Pseudomonas sp. (protein, UniProt P58329 1-363, looked up)
Cyanuric acid amidohydrolase: MYHIDVFRIPCHSPGDTSGLEDLIETGRVAPADIVAVMGKTEGNGCVNDYTREYATAMLAACLGRHLQLPPHEVEKRVAFVMSGGTEGVLSPHHTVFARRPAIDAHRPAGKRLTLGIAFTRDFLPEEIGRHAQITETAGAVKRAMRDAGIASIDDLHFVQVKCPLLTPAKIASARSRGCAPVTTDTYESMGYSRGASALGIALATEEVPSSMLVDESVLNDWSLSSSLASASAGIELEHNVVIAIGMSEQATSELVIAHGVMSDAIDAASVRRTIESLGIRSDDEMDRIVNVFAKAEASPDGVVRGMRHTMLSDSDINSTRHARAVTGAAIASVVGHGMVYVSGGAEHQGPAGGGPFAVIARA
For B1, the Km is given as 71 µM, the Vmax is given as 8.4 µmol/min/mg and the turnover rate is given as 3 reactions per second.
